Laboratory results as given in publication PMC8891189, “Hydroxycinnamoyltransferase and CYP98 in phenolic metabolism in the rosmarinic acid-producing hornwort Anthoceros agrestis” (Planta, 2022).

Legend:
[1] = substrate: O=C(O)C1=C[C@@H](O)[C@@H](O)[C@H](O)C1; test: cells, lysate or membranes; details: co-substrate p-coumaroyl-CoA, pH 7.0, 30 °C, crude extract
[2] = substrate: CC(C)(COP(=O)(O)OP(=O)(O)OC[C@H]1O[C@@H](n2cnc3c(N)ncnc32)[C@H](O)[C@@H]1OP(=O)(O)O)[C@@H](O)C(=O)NCCC(=O)NCCSC(=O)/C=C/c1ccc(O)cc1; test: HPLC product assay, Michaelis-Menten fit; type: biochemical, Anthoceros agrestis; details: co-substrate shikimic acid, pH 7.0, 30 °C, crude extract, pH 7.0
[3] = substrate: O=C(O)c1cccc(O)c1O; test: HPLC product assay, Michaelis-Menten fit; type: biochemical, Anthoceros agrestis; details: co-substrate p-coumaroyl-CoA, 30 °C, crude extract, ester formed
[4] = substrate: CC(C)(COP(=O)(O)OP(=O)(O)OC[C@H]1O[C@@H](n2cnc3c(N)ncnc32)[C@H](O)[C@@H]1OP(=O)(O)O)[C@@H](O)C(=O)NCCC(=O)NCCSC(=O)/C=C/c1ccc(O)c(O)c1; test: HPLC product assay, Michaelis-Menten fit; type: biochemical, Anthoceros agrestis; details: co-substrate shikimic acid, pH 7.0, 30 °C, crude extract, pH 7.0
[5] = substrate: Nc1c(O)cccc1C(=O)O; test: HPLC product assay, Michaelis-Menten fit; type: biochemical, Anthoceros agrestis; details: co-substrate p-coumaroyl-CoA, pH 9.0, 30 °C, crude extract, amide formed, pH 9.0
[6] = substrate: O=C(/C=C/c1ccc(O)cc1)Nc1ccccc1C(=O)O; test: HPLC product assay, Michaelis-Menten fit; type: biochemical, Anthoceros agrestis; details: co-substrate NADPH, with Coleus blumei CPR, pH 7.0, 30 °C, crude extract
[7] = substrate: O=C(/C=C/c1ccc(O)cc1)NCCc1ccc(O)cc1; test: HPLC product assay, Michaelis-Menten fit; type: biochemical, Anthoceros agrestis; details: co-substrate NADPH, with Coleus blumei CPR, pH 7.0, 30 °C, crude extract
[8] = substrate: O=C(/C=C/c1ccc(O)cc1)Nc1c(O)cccc1C(=O)O; test: HPLC product assay, Michaelis-Menten fit; type: biochemical, Anthoceros agrestis; details: co-substrate NADPH, with Coleus blumei CPR, pH 7.0, 30 °C, crude extract

B1: AaHCT6 (Anthoceros agrestis) (protein)
chain: MKVSIKKETMVPPAEETPQVALWASNVDLIIPQIHTSSVYFYRPSGSPDFFSGDVLRDALAKALVPFYPMAGRLARDQDGRIQINCNAAGVLLVEAEADVSIDDLGGFAPHPVLQQLVPTVVYTKDITAFPLLVLQVTRFKCGGASLGVGMEHHIADGTSGIHFINTWSDVARGEGVKVLPFVDRTLLRARSPPTPQFEHVEYQTPFTLQPRFRPEEGSEKVETVVESFTFSREQLGKLKAMVADPGANLAYSSYVALSAHIWRCATRARGLSGDQPSKLFVATDGRARLRPPLPRGYFGNVIFTCTPVAEAEELVAKPLIRTAARIQEAVLKMGDEYLRSALDYLELLPDMSVCIRGAAHFGNPNLCITSWSGLPVYDCDFGWGRAIHMGPCQIGFEGLCFVLGSATKDGSLGLALRLRADHMADFRKLVNDI
Km [1]: 24.6 ± 10.4 µM | Km [2]: 14.4 ± 1.4 µM | Km [3]: 1025.9 ± 59.7 µM | Km [4]: 19.2 ± 16.2 µM | Km [5]: 153.1 ± 33.8 µM

B2: AaCYP98 (CYP98A147; coAaCYP98 + CbCPR) (Anthoceros agrestis) (protein)
chain: MAELVVRAVLALIAVAVAAGFLFYRARWSRYKLPPGPKPRLFVGNLLDVTAVRFKCFEQWAKVYGPVMSVWMGATLNVVVSSAEGAKEVLKDKDQSLAARARSRAAAKFSRDGQDLIWADYGPHYVKVRKVCNVELFTPKRLEALRPIRQDEVSAMVHKIHRDAPKGPVNPKKYLSAMAFNNITRLAFGKRFVDDEGKIDSQGVEFKEVIGQGMKLGASLKISEHIPSIRWMFPLQNEEFAKHGARRDTLTRTIMKEHAALRETLGPQSHFVDALLGLQKQYDLSETTIIGLLWDMVTAGMDTVAITVEWALAELIRNPEVQRKAQEELDAVVGDETVLTEAHFSKLPYLTALTKESLRLHPPTPLMLPHKCTEDVKIQGYDIPKGTVVHCNIYVIARDPAVWKEPLAFRPERFLEQDVDIKGHDFRLLPFGAGRRVCPGAQLGLNMVQLMIGRLLHQFSWSPPEGVRAEDISLEERSGIVTYMAKSLEAVATPRLPQALYARNV
notes: with NADPH--cytochrome P450 reductase (Coleus blumei)
Km [6]: 6.4 ± 0.8 µM | Km [7]: 36.3 ± 3.6 µM | Km [8]: 9.3 ± 0.7 µM
